Experimental data: paper PMC11552376, “Specific binding between Arabidopsis thaliana phytochrome-interacting factor 3 (AtPIF3) bHLH and G-box originated prior to embryophyte emergence” (BMC Plant Biology, 2024)

Tests used:
[1] = target: AtPIF3-bHLH K362A mutant (Arabidopsis thaliana) (UniProt O80536); assay: SEC; Superdex75 size exclusion column, UV trace at 280 nm, compared with molecular weight standards (albumin, carbonic anhydrase, cytochrome c, vitamin B12); gel filtration buffer of the methods: 30 mM HEPES, 500 mM NaCl, pH 7.4; oligomeric state of the protein with itself
[2] = target: the molecule itself; assay: as above
AtPIF3-bHLH WT [3] = target: T1, AtPIF3-bHLH WT (Arabidopsis thaliana, UniProt O80536 340-397); assay: EMSA; DNA:protein 1:1 to 1:20; ITC: 30 mM HEPES, 125 mM NaCl, pH 7.5, 25 C, 400 uM protein into 40 uM DNA; fEMSA: 30 mM HEPES, 500 mM NaCl, pH 7.4, on ice 30 min, 3 uM probe, 10% native gel in 0.5x TBE at 4 C; conditions: protein: recombinant; tags: C-terminal His6; chain copies: 2; label: 5' fluorescein; blunt
T1 sequence: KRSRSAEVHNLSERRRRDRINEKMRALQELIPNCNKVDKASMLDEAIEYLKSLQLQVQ

AtPIF3-bHLH WT [4] = target: T1, AtPIF3-bHLH WT; assay: ITC; ITC: 30 mM HEPES, 125 mM NaCl, pH 7.5, 25 C, 400 uM protein into 40 uM DNA; fEMSA: 30 mM HEPES, 500 mM NaCl, pH 7.4, on ice 30 min, 3 uM probe, 10% native gel in 0.5x TBE at 4 C; conditions: protein: recombinant; tags: C-terminal His6; chain copies: 2; blunt

For “AtPIF3-bHLH K362A mutant (from UniProt O80536 343-392) (domain or fragment)”, the stoichiometry N [1] was 2.

B1: AtPIF3-bHLH M399A mutant (domain or fragment, Arabidopsis thaliana, UniProt O80536 343-399, looked up)
chain: RSAEVHNLSERRRRDRINEKMRALQELIPNCNKVDKASMLDEAIEYLKSLQLQVQIA
notes: bHLH domain of PIF3 (AT1G09530), Arabidopsis thaliana, with M399A; Site-directed mutant of m1
B1 was tested, and the “stoichiometry N” value [2] was 2.

B2: Arabidopsis thaliana PIF3-bHLH (AtPIF3-bHLH) recombinant protein, wild type (domain or fragment, UniProt O80536 340-399, looked up)
chain: KRSRSAEVHNLSERRRRDRINEKMRALQELIPNCNKVDKASMLDEAIEYLKSLQLQVQIM
notes: Cloned between NheI and XhoI of pET21b; also called PIF3-bHLH–His6; WT; source: E. coli Rosetta (DE3), pET21b, purified (HisTrap FF, Superdex75 gel filtration); not shown: His6, C-terminal, kept
In the case of B2, the “stoichiometry N” value [2] is reported as 2.

B3: pPIL1 G-box (dsDNA)
DNA 1: GCATTCACGTGAAGT
DNA 2: ACTTCACGTGAATGC
B3: binds (AtPIF3-bHLH WT [3]).

B4: G-box (PER2), ITC (dsDNA)
DNA 1: AGGAACACGTGACCC
DNA 2: GGGTCACGTGTTCCT
In the case of B4, the Kd (AtPIF3-bHLH WT [4]) is reported as 320 ± 14 nM.
